The series has as its system Escherichia coli TOP10. The series can be described thus: shrunken log2 fold change of peptide-encoding DNA abundance (4.5 h post-induction vs induction); higher = less antimicrobial activity (less host growth inhibition). Particulars: time post-induction: 4.5 h; library: site-saturation at positions 5, 18, 19, 20.
As to RRIRVRPPRLPRPRPRPPIHPRP, the “shrunken log2 fold change” value amounted to 0.042.

Regarding RRIRDRPPRLPRPRPRPHMPPRP, the “shrunken log2 fold change” value came out at 0.0902.

Consider RRIRNRPPRLPRPRPRPLDQPRP, for which the “shrunken log2 fold change” value is -0.266.

As to RRIRSRPPRLPRPRPRPFWYPRP, the “shrunken log2 fold change” value was -0.185.

Turning to RRIRYRPPRLPRPRPRPCPSPRP, the “shrunken log2 fold change” value stood at 0.109.

Take RRIRKRPPRLPRPRPRPNPSPRP: the “shrunken log2 fold change” value is 0.108.

As to RRIRFRPPRLPRPRPRPFLKPRP, the “shrunken log2 fold change” value was -0.145.

For RRIRGRPPRLPRPRPRPIFTPRP, the “shrunken log2 fold change” value was found to be 0.284.

Regarding RRIRWRPPRLPRPRPRPKYVPRP, the “shrunken log2 fold change” value is -0.0314.

Turning to RRIRSRPPRLPRPRPRPARTPRP, the “shrunken log2 fold change” value was 0.293.

With RRIRWRPPRLPRPRPRPIPPPRP, the “shrunken log2 fold change” value came to 0.101.

On to RRIRVRPPRLPRPRPRPNRKPRP, for which the “shrunken log2 fold change” value is -0.0231.

Turning to RRIRVRPPRLPRPRPRPPAVPRP, the “shrunken log2 fold change” value was determined as 0.523.

As to RRIRVRPPRLPRPRPRPKEPPRP, the “shrunken log2 fold change” value worked out at 0.0639.

With RRIRHRPPRLPRPRPRPAQVPRP, the “shrunken log2 fold change” value was -0.0333.

Consider RRIRDRPPRLPRPRPRPKWCPRP, for which the “shrunken log2 fold change” value came out at 0.135.

Consider RRIRDRPPRLPRPRPRPGDKPRP, for which the “shrunken log2 fold change” value worked out at 0.088.

On to RRIRPRPPRLPRPRPRPIYYPRP, for which the “shrunken log2 fold change” value is -0.323.

Turning to RRIRERPPRLPRPRPRPAVSPRP, the “shrunken log2 fold change” value turned out to be 0.0433.

Take RRIRERPPRLPRPRPRPTWGPRP: the “shrunken log2 fold change” value was -0.0539.

For RRIRRRPPRLPRPRPRPCYRPRP, the “shrunken log2 fold change” value came out at 0.0724.

Consider RRIRERPPRLPRPRPRPGQNPRP, for which the “shrunken log2 fold change” value is -0.0659.

RRIRIRPPRLPRPRPRPNPCPRP: the “shrunken log2 fold change” value was -0.159.

With RRIRPRPPRLPRPRPRPCLVPRP, the “shrunken log2 fold change” value is -0.179.

For RRIRIRPPRLPRPRPRPAAGPRP, the “shrunken log2 fold change” value came out at 0.0506.

For the sequence RRIRQRPPRLPRPRPRPPDEPRP, the “shrunken log2 fold change” value was found to be 0.0836.

As to RRIRDRPPRLPRPRPRPDQFPRP, the “shrunken log2 fold change” value is -0.00947.

Turning to RRIRHRPPRLPRPRPRPYDDPRP, the “shrunken log2 fold change” value is -0.00822.

Take RRIRQRPPRLPRPRPRPVQGPRP: the “shrunken log2 fold change” value was 0.0162.

On to RRIRDRPPRLPRPRPRPDSLPRP, for which the “shrunken log2 fold change” value worked out at 0.0462.

On to RRIRERPPRLPRPRPRPKAHPRP, for which the “shrunken log2 fold change” value was 0.107.

As for RRIRVRPPRLPRPRPRPTPNPRP, the “shrunken log2 fold change” value amounted to 0.306.

For RRIRNRPPRLPRPRPRPAIGPRP, the “shrunken log2 fold change” value amounted to 0.0499.

With RRIRGRPPRLPRPRPRPFVRPRP, the “shrunken log2 fold change” value was determined as 0.0432.

In the case of RRIRHRPPRLPRPRPRPHKPPRP, the “shrunken log2 fold change” value is 0.0188.

For the sequence RRIRGRPPRLPRPRPRPFNRPRP, the “shrunken log2 fold change” value was -0.0104.

With RRIRIRPPRLPRPRPRPKRYPRP, the “shrunken log2 fold change” value was -0.118.

Take RRIRHRPPRLPRPRPRPIWGPRP: the “shrunken log2 fold change” value worked out at 0.226.

In the case of RRIRVRPPRLPRPRPRPAKLPRP, the “shrunken log2 fold change” value stood at 0.139.

On to RRIRRRPPRLPRPRPRPKVSPRP, for which the “shrunken log2 fold change” value came to 0.267.

On to RRIRKRPPRLPRPRPRPRYLPRP, for which the “shrunken log2 fold change” value was -0.179.

For the sequence RRIRARPPRLPRPRPRPIPAPRP, the “shrunken log2 fold change” value was determined as 0.333.

Take RRIRYRPPRLPRPRPRPSMPPRP: the “shrunken log2 fold change” value was -1.69.

For RRIRCRPPRLPRPRPRPFAIPRP, the “shrunken log2 fold change” value was -0.682.

Turning to RRIRTRPPRLPRPRPRPAGYPRP, the “shrunken log2 fold change” value was found to be 0.138.

Take RRIRPRPPRLPRPRPRPCEFPRP: the “shrunken log2 fold change” value is -0.0795.

Take RRIRTRPPRLPRPRPRPPESPRP: the “shrunken log2 fold change” value is -0.0298.

For RRIRLRPPRLPRPRPRPWNTPRP, the “shrunken log2 fold change” value is -0.444.

Consider RRIRRRPPRLPRPRPRPMELPRP, for which the “shrunken log2 fold change” value is 0.212.

In the case of RRIRKRPPRLPRPRPRPSRMPRP, the “shrunken log2 fold change” value was found to be 0.317.

RRIRLRPPRLPRPRPRPNMFPRP: the “shrunken log2 fold change” value is -0.225.

With RRIRLRPPRLPRPRPRPRLSPRP, the “shrunken log2 fold change” value was determined as 0.346.

Regarding RRIRTRPPRLPRPRPRPWYEPRP, the “shrunken log2 fold change” value was -0.145.

On to RRIRMRPPRLPRPRPRPFWAPRP, for which the “shrunken log2 fold change” value is 0.509.

In the case of RRIRTRPPRLPRPRPRPHISPRP, the “shrunken log2 fold change” value is -0.0286.

On to RRIRWRPPRLPRPRPRPHHNPRP, for which the “shrunken log2 fold change” value was -0.478.

In the case of RRIRLRPPRLPRPRPRPTIRPRP, the “shrunken log2 fold change” value is -0.0201.

With RRIRKRPPRLPRPRPRPYEEPRP, the “shrunken log2 fold change” value is -0.0817.

Regarding RRIRLRPPRLPRPRPRPTLAPRP, the “shrunken log2 fold change” value was found to be 0.423.

Take RRIRVRPPRLPRPRPRPATWPRP: the “shrunken log2 fold change” value stood at 0.218.

As for RRIRARPPRLPRPRPRPRLLPRP, the “shrunken log2 fold change” value was 0.526.

For RRIRRRPPRLPRPRPRPGHDPRP, the “shrunken log2 fold change” value came out at 0.0801.

For RRIRERPPRLPRPRPRPCYCPRP, the “shrunken log2 fold change” value is -0.539.

On to RRIRMRPPRLPRPRPRPETKPRP, for which the “shrunken log2 fold change” value is 0.253.

Regarding RRIRQRPPRLPRPRPRPFMNPRP, the “shrunken log2 fold change” value was -0.148.

With RRIRPRPPRLPRPRPRPLIKPRP, the “shrunken log2 fold change” value is -0.268.

In the case of RRIRGRPPRLPRPRPRPHEGPRP, the “shrunken log2 fold change” value is 0.403.

On to RRIRSRPPRLPRPRPRPATQPRP, for which the “shrunken log2 fold change” value turned out to be 0.168.

On to RRIRVRPPRLPRPRPRPNGHPRP, for which the “shrunken log2 fold change” value is -0.0787.

With RRIRYRPPRLPRPRPRPKYRPRP, the “shrunken log2 fold change” value was -0.0133.

As for RRIRTRPPRLPRPRPRPYYQPRP, the “shrunken log2 fold change” value was -0.122.

In the case of RRIRSRPPRLPRPRPRPKCFPRP, the “shrunken log2 fold change” value came out at 0.318.

On to RRIRLRPPRLPRPRPRPSRWPRP, for which the “shrunken log2 fold change” value was -0.279.

RRIRCRPPRLPRPRPRPPNMPRP: the “shrunken log2 fold change” value is -0.302.

Regarding RRIRKRPPRLPRPRPRPQTPPRP, the “shrunken log2 fold change” value turned out to be 1.39.

In the case of RRIRDRPPRLPRPRPRPVFNPRP, the “shrunken log2 fold change” value is -0.353.

With RRIRVRPPRLPRPRPRPDPCPRP, the “shrunken log2 fold change” value was -0.0596.

For RRIRKRPPRLPRPRPRPRKAPRP, the “shrunken log2 fold change” value is 0.384.

Consider RRIRKRPPRLPRPRPRPDPRPRP, for which the “shrunken log2 fold change” value is 1.19.

Regarding RRIRIRPPRLPRPRPRPIVFPRP, the “shrunken log2 fold change” value is -0.144.

As for RRIRWRPPRLPRPRPRPGSGPRP, the “shrunken log2 fold change” value came out at 0.497.

For the sequence RRIRFRPPRLPRPRPRPPESPRP, the “shrunken log2 fold change” value was found to be 1.13.

For RRIRYRPPRLPRPRPRPTLGPRP, the “shrunken log2 fold change” value was -0.16.

Take RRIRRRPPRLPRPRPRPCPPPRP: the “shrunken log2 fold change” value stood at 0.0965.

For the sequence RRIRKRPPRLPRPRPRPANAPRP, the “shrunken log2 fold change” value was found to be 0.426.

Take RRIRKRPPRLPRPRPRPLSEPRP: the “shrunken log2 fold change” value came to 0.251.

Consider RRIRKRPPRLPRPRPRPKLAPRP, for which the “shrunken log2 fold change” value was 1.58.

RRIRDRPPRLPRPRPRPAYYPRP: the “shrunken log2 fold change” value is -0.947.

On to RRIRLRPPRLPRPRPRPIAQPRP, for which the “shrunken log2 fold change” value is -0.0527.

Turning to RRIRNRPPRLPRPRPRPILTPRP, the “shrunken log2 fold change” value is -0.135.

Turning to RRIRDRPPRLPRPRPRPWSSPRP, the “shrunken log2 fold change” value was 0.0046.

In the case of RRIRRRPPRLPRPRPRPLTGPRP, the “shrunken log2 fold change” value amounted to 0.0456.

Take RRIRVRPPRLPRPRPRPLHRPRP: the “shrunken log2 fold change” value is -0.0175.

RRIRERPPRLPRPRPRPFKVPRP: the “shrunken log2 fold change” value came out at 0.14.

Consider RRIRTRPPRLPRPRPRPIYWPRP, for which the “shrunken log2 fold change” value was -0.157.

With RRIRERPPRLPRPRPRPYIEPRP, the “shrunken log2 fold change” value is -0.266.

As for RRIRKRPPRLPRPRPRPKMNPRP, the “shrunken log2 fold change” value was 0.2.

With RRIRSRPPRLPRPRPRPWEDPRP, the “shrunken log2 fold change” value is -0.0124.

Take RRIRVRPPRLPRPRPRPNEVPRP: the “shrunken log2 fold change” value was determined as 0.00656.

Regarding RRIRTRPPRLPRPRPRPHLCPRP, the “shrunken log2 fold change” value was -0.17.

Turning to RRIRCRPPRLPRPRPRPAVTPRP, the “shrunken log2 fold change” value is 0.0305.

For RRIRIRPPRLPRPRPRPEERPRP, the “shrunken log2 fold change” value was 0.0136.

Consider RRIRGRPPRLPRPRPRPVKPPRP, for which the “shrunken log2 fold change” value was 0.268.

With RRIRERPPRLPRPRPRPCVTPRP, the “shrunken log2 fold change” value was -0.322.

As to RRIRVRPPRLPRPRPRPVHVPRP, the “shrunken log2 fold change” value is -0.0459.

On to RRIRRRPPRLPRPRPRPKEIPRP, for which the “shrunken log2 fold change” value stood at 0.205.

In the case of RRIRTRPPRLPRPRPRPVCYPRP, the “shrunken log2 fold change” value is -0.531.

Take RRIRCRPPRLPRPRPRPNTRPRP: the “shrunken log2 fold change” value was -0.267.

Turning to RRIRKRPPRLPRPRPRPNPFPRP, the “shrunken log2 fold change” value amounted to 1.91.

Take RRIRMRPPRLPRPRPRPVDFPRP: the “shrunken log2 fold change” value was found to be 0.159.

Regarding RRIRERPPRLPRPRPRPQLFPRP, the “shrunken log2 fold change” value was 0.0984.

As to RRIRDRPPRLPRPRPRPCYSPRP, the “shrunken log2 fold change” value is -0.0729.

As for RRIRSRPPRLPRPRPRPNWQPRP, the “shrunken log2 fold change” value came to 0.0694.

As to RRIRRRPPRLPRPRPRPGGSPRP, the “shrunken log2 fold change” value came out at 0.0293.

For the sequence RRIRMRPPRLPRPRPRPNLAPRP, the “shrunken log2 fold change” value is 0.337.

For RRIRFRPPRLPRPRPRPQNQPRP, the “shrunken log2 fold change” value is -0.485.

Turning to RRIRYRPPRLPRPRPRPFEGPRP, the “shrunken log2 fold change” value was -0.000989.

Consider RRIRQRPPRLPRPRPRPIEVPRP, for which the “shrunken log2 fold change” value is 0.0112.

Take RRIRGRPPRLPRPRPRPVCKPRP: the “shrunken log2 fold change” value worked out at 0.124.

For RRIRPRPPRLPRPRPRPPAYPRP, the “shrunken log2 fold change” value is -0.0312.

In the case of RRIRIRPPRLPRPRPRPCAPPRP, the “shrunken log2 fold change” value was -0.506.

For the sequence RRIRGRPPRLPRPRPRPTNNPRP, the “shrunken log2 fold change” value worked out at 0.217.

Turning to RRIRLRPPRLPRPRPRPLKEPRP, the “shrunken log2 fold change” value is 0.00325.

Regarding RRIRERPPRLPRPRPRPPLDPRP, the “shrunken log2 fold change” value was found to be 0.0357.

Consider RRIRYRPPRLPRPRPRPTTEPRP, for which the “shrunken log2 fold change” value came to 0.00298.

The values above are taken from the supplement of paper PMC9112550, “Optimization of the antimicrobial peptide Bac7 by deep mutational scanning” (BMC Biology, 2022).
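Note: peptides expressed intracellularly from a pBAD plasmid library in pooled LB shake-flask culture, induced with 0.3% L-arabinose, DNA abundance read by NGS, three biological replicates, DESeq2 with apeglm shrinkage.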
